Where no end group is shown, it is not given here.
Key:
[1] = target: T1, human bone morphogenic protein 2 (BMP2) (human, UniProt P12643 283-396, Disulfide-linked homodimer of this chain (non-reduced band of about 36 kDa, monomers of 17-18 kDa); one copy is given.); test: SPR (Biacore); mAb captured via anti-human Fc, BMP flowed at 10 nM
T1 construct: Bought recombinant human BMP2 (R&D Systems or Medtronic); also called recombinant human BMP2
Experimental: (§1) The antigen-antibody association kinetics was followed for 2 minutes and the dissociation kinetics was followed for 8 minutes. The association and dissociation curves were fit to a 1:1 Langmuir binding model using BIAevaluation software (Biacore, AB).

[2] = target: T2, human bone morphogenic protein 4 (BMP4) (human, UniProt P12644 293-408); test: as above
T2 construct: Bought recombinant human BMP4 (R&D Systems); also called recombinant human BMP4
T2 sequence: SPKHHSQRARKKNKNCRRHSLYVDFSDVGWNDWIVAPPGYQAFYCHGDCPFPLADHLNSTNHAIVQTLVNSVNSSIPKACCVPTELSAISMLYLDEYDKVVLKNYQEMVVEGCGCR
Experimental: as §1

[3] = target: T1, human bone morphogenic protein 2 (BMP2); test: cell-based or functional assay
[4] = target: T2, human bone morphogenic protein 4 (BMP4); test: cell-based or functional assay
[5] = target: T3, BMP2 epitope peptide QAKHKQRKRLKSSCKRH (SEQ ID NO:93) (human, also: biotin conjugated, site not given here); test: SPR (Biacore); biotinylated peptide on streptavidin chip, antibody at 40 ug/ml
T3 construct: Biotinylated peptide captured on a streptavidin chip
T3 peptide: QAKHKQRKRLKSSCKRH

[6] = target: T4, BMP2 epitope peptide ISMLYLDENEKVVLK (SEQ ID NO:92) (human, also: biotin conjugated, site not given here); test: as above
T4 construct: Biotinylated peptide captured on a streptavidin chip
T4 peptide: ISMLYLDENEKVVLK

[7] = target: T2, human bone morphogenic protein 4 (BMP4); test: Biacore competition: mAb (two-fold series from 400 nM) pre-incubated with BMP4 (3-10 nM), mixture injected over immobilised type II BMP receptor; response = BMP4 binding to the receptor
Experimental: Both type-I and type-II BMP receptors were covalently linked to a CM5 chip (carboxy methyl dextran coated chip) via primary amines, using the standard amine coupling chemistry and kit provided by Biacore. Mixtures of antibody-antigen complex were flowed across the immobilized receptors. […] Antibody-antigen mixtures were injected at a flow rate of 5 μl/min for 3 minutes.

T1 sequence (P12643 283-396 limits assumed): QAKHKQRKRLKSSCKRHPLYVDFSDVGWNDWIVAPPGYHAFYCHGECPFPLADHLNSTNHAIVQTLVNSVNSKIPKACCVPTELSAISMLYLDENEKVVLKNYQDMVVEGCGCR

B1: 1F6 human monoclonal antibody (antibody, V domains shown)
VH: QVQLQESGPGLVKPSETLSLTCTVSGDSISSYYWSWIRQPPGKGLEWIGYIYYSGSTRYNPPLKSRVTISVDTSKNQFSLKLSSVTAADTAVYYCARICSSTSCWGWFDPWGQGTLVTVSS
VL: not shown
notes: Human IgG from a HuMAb/KM mouse hybridoma
Kd [1]: 0.02 nM | koff [1]: 8.49e-05 s⁻¹ | kon [1]: 4.65e+06 M⁻¹ s⁻¹ | Kd [2]: 0.0003 nM | koff [2]: 1.27e-06 s⁻¹ | kon [2]: 4.97e+06 M⁻¹ s⁻¹

B2: 11F2 human monoclonal antibody (antibody, V domains shown)
VH: QVQLQESGPGLVKPSETLSLTCTVSGDSIRSYYWSWIRQPPGKGLEWIGYIYYRGSTHYNPSLKSRVTISVDTSKNQFSLKMSSVTAADTAVYYCARICSSISCWGWFDPWGQGTLVTVSS
VL: not shown
notes: as for B1
Kd [1]: 0.01 nM | koff [1]: 3.09e-05 s⁻¹ | kon [1]: 2.83e+06 M⁻¹ s⁻¹ | Kd [2]: 0.0007 nM | koff [2]: 3.04e-08 s⁻¹ | kon [2]: 45300 M⁻¹ s⁻¹ | IC50 (read off the curve) [3]: ~3 µg/mL | IC50 (read off the curve) [4]: ~3 µg/mL | binding result [5]: binds

B3: 6H4 human monoclonal antibody (antibody, V domains shown)
VH: QVHLQQWGAGLLKPSETLSLTCAVYGGSFSGYYWSWIRQPPGKGLEWIGEINHSGSTNYNPSLKSRVTISVDTSKNQFSLKLSSVTAADTAVYYCAREYYYGSESEYFQHWGQGTLVTVSS
VL: EIVLTQSPATLSLSPGERATLSCRASQSVSSYLAWYQQKPGQAPRLLIYDASNRATGIPARFSGSGSGTDFTLTISSLEPEDFAVYYCQQRSNWPHTFGQGTKLEIK
notes: as for B1
Kd [1]: 0.1 nM | koff [1]: 0.000198 s⁻¹ | kon [1]: 1.42e+06 M⁻¹ s⁻¹ | Kd [2]: 0.3 nM | koff [2]: 0.000497 s⁻¹ | kon [2]: 2e+06 M⁻¹ s⁻¹

B4: 8B3 human monoclonal antibody (antibody, V domains shown)
VH: QVQLVQSGAEVKKPGSSVKVSCKASGGTFSSYAISWVRQAPGQGLEWMGRIIPILGIAQYAQKFQGRVTLTADKSTSTAYMELSSLRSEDTAVYYCARGKDIWGQGTMVTVSS
VL: not shown
notes: as for B1
Kd [1]: 0.19 nM | koff [1]: 0.000582 s⁻¹ | kon [1]: 3.02e+06 M⁻¹ s⁻¹ | Kd [2]: 0.18 nM | koff [2]: 0.000827 s⁻¹ | kon [2]: 4.69e+06 M⁻¹ s⁻¹ | binding result [6]: binds

B5: 7D6 human monoclonal antibody (antibody, V domains shown)
VH: QVQLVQSGAEVKKPGSSVKVSCKASGGTFSSYAISWVRQAPGQGLEWMGRIIPILGIVNYAQKFQGRVTITADKSTSTAYMELSSLRSEDTAVYYCARGKDIWGQGTMVTVSS
VL: EIVLTQSPGTLSLSPGERATLSCRASQIVISTYLAWYQQKPGQAPRLLIYGASSRATGIPDRFSGSGSGTDFTLTISRLEPEDFAVYYCQQYGSSPCTFGQGTKLEIK
notes: as for B1
Kd [1]: 0.28 nM | koff [1]: 0.00114 s⁻¹ | kon [1]: 4e+06 M⁻¹ s⁻¹ | Kd [2]: 0.42 nM | koff [2]: 0.0012 s⁻¹ | kon [2]: 2.84e+06 M⁻¹ s⁻¹ | binding result [6]: binds

B6: 15F3 human monoclonal antibody (antibody, V domains shown)
VH: QVQLVQSGAEVKKPGSSVKVSCKASGGTFSSYAISWVRQAPGQGLEWMGRIIPILGIAQYAQKFQGRVTLTADKSTNTAYMELSSLRSEDTAVYYCARGKDIWGQGTMVTVSS
VL: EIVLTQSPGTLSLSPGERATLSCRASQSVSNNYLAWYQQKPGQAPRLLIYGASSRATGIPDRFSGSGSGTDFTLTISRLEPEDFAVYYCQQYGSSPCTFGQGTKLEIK
notes: as for B1
Kd [1]: 0.03 nM | koff [1]: 0.00027 s⁻¹ | kon [1]: 7.96e+06 M⁻¹ s⁻¹ | Kd [2]: 0.18 nM | koff [2]: 0.00056 s⁻¹ | kon [2]: 3.14e+06 M⁻¹ s⁻¹

B7: 33F7 human monoclonal antibody (antibody, V domains shown)
VH: QVQLVQSGAEVKKPGSSVKVSCKASGGTFSSYAINWVRQAPGQGLEWMGRLIPILGIANYAQKFQGRVTITADKSTSTAYMELSSLRSEDTAVYYCARGKDIWGQGTMVTVSS
VL: EIVLTQSPGTLSLSPGERVTLSCRASQSVSSNYLAWYQQKPGQAPRLLIKGASSRATGIPDRFSGSGSGTDFTLTISRLEPEDFAVYYCQQYGSSPCTFGQGTKLEIK
notes: as for B1
Kd [1]: 0.12 nM | koff [1]: 0.000654 s⁻¹ | kon [1]: 5.71e+06 M⁻¹ s⁻¹ | Kd [2]: 0.38 nM | koff [2]: 0.0014 s⁻¹ | kon [2]: 3.65e+06 M⁻¹ s⁻¹ | IC50 (read off the curve) [7]: ~100 nM

B8: 12E3 human monoclonal antibody (antibody, V domains shown)
VH: QVQLVESGGGVVQPGRSLRLSCAASGFTFSSYGMHWVRQAPGKGLEWVAVIWDDGRKKYYADSVKGRFTISRDNSKNTLYLQMNSLRAEDTAVYYCAREPAGVWGMDVWGQGTTVTVSS
VL: DIQMTQSPSSLSASVGDRVTITCRASQGISSWLAWYQQKPEKAPKSLIYAASSLQSGVPSRFSGSGSGTDFTLTISSLQPEDFATYYCQQYNSYPLTFGGGTKVEIK
notes: as for B1
Kd [1]: 0.02 nM | koff [1]: 8.26e-05 s⁻¹ | kon [1]: 3.39e+06 M⁻¹ s⁻¹ | Kd [2]: 0.28 nM | koff [2]: 0.000482 s⁻¹ | kon [2]: 1.75e+06 M⁻¹ s⁻¹ | IC50 (read off the curve) [7]: ~20 nM | binding result [5]: binds

B9: 16B7 human monoclonal antibody (antibody, V domains shown)
VH: QVQLVESGGGVVQPGRSLRLSCAASGFTFSNYGIHWVRQAPGKGLEWVAVIWYDGSHKYYADSMKGRFTISRDNSKNTLDLQMNSLRAEDTAVYYCARGSSSWYFDLWGRGTLVTVSS
VL: DIQMTQSPSSLSASVGDRVTITCRASQGISSWLAWYQQKPEKAPKSLIYAASSLQSGVPSRFSGSGSGTDFTLTISSLQPEDFATYYCQQYNSYPLTFGGGTKVEIK
notes: as for B1
Kd [1]: 0.08 nM | koff [1]: 0.000282 s⁻¹ | kon [1]: 3.7e+06 M⁻¹ s⁻¹ | Kd [2]: 0.02 nM | koff [2]: 6.12e-05 s⁻¹ | kon [2]: 2.86e+06 M⁻¹ s⁻¹ | binding result [5]: binds

B10: 10F6 human monoclonal antibody (antibody, V domains shown)
VH: QVQLVESGGGVVQPGRSLRLSCAASGFTFRSYGIHWVRQAPGKGLEWVAVIWYDGSHKYYADSVKGRFTISRDNSKNTLDLQMNSLRAEDTAVYYCVRGSSNWYFDYWGQGTLVTVSS
VL: DIQMTQSPSSLSASVGDRVTITCRASQGISSWLAWYQQKPEKAPKSLIYAASSLQSGVPSRFSGSGSGTDFTLTISSLQPEDFATYYCQQYNSYPLTFGGGTKVEIK
notes: as for B1
Kd [1]: 0.19 nM | koff [1]: 0.000385 s⁻¹ | kon [1]: 2.04e+06 M⁻¹ s⁻¹ | Kd [2]: 0.75 nM | koff [2]: 0.00197 s⁻¹ | kon [2]: 2.61e+06 M⁻¹ s⁻¹

Source: patent publication US20110182904A1 (published 2011)
